# Experiments:
# α-syn = α-syn (Homo sapiens, UniProt P37840); assay: ThT aggregation kinetics of α-syn; type: biochemical; conditions: 20 μM α-syn, 5 μM ligand; α-syn alone half-time 44 h
# [1] = target: α-syn monomers, oligomers or fibrils (Homo sapiens, UniProt P37840); assay: Dot-blot binding assay; conditions: 0.05–0.4 μg immobilized protein, 33 μg mL^−1 α-syn monomer, oligomer or fibril
# αSOs-Alexa488 = αSOs-Alexa488 (Homo sapiens, UniProt P37840); assay: FIDA binding of αSOs to neuronal proteins in solution; conditions: up to 150 μM ligand, in solution
Reduction of half-time of aggregation (α-syn),Binding preference for α-syn species in dot blot [1],Molecule,Change in Rh of αSOs-Alexa488 on titration with ligand (αSOs-Alexa488)
3 fold,bound most strongly to fibrils,Ubiquitin carboxyl-terminal hydrolase isozyme L1 (UCH-L1) (protein) MQLKPMEINPEMLNKVLSRLGVAGQWRFVDVLGLEEESLGSVPAPACALLLLFPLTAQHENFRKKQIEELKGQEVSPKVYFMKQTIGNSCGTIGLIHAVANNQDKLGFEDGSVLKQFLSETEKMSPEDRAKCFEKNEAIQAAHDAVAQEGQCRVDDKVNFHFILFNNVDGHLYELDGRMPFPVNHGASSEDTLLKDAAKVCREFTEREQGEVRFSAVALCKAA,little change in Rh
–,–,NAD-dependent protein deacetylase sirtuin-2 (protein) MAEPDPSHPLETQAGKVQEAQDSDSDSEGGAAGGEADMDFLRNLFSQTLSLGSQKERLLDELTLEGVARYMQSERCRRVICLVGAGISTSAGIPDFRSPSTGLYDNLEKYHLPYPEAIFEISYFKKHPEPFFALAKELYPGQFKPTICHYFMRLLKDKGLLLRCYTQNIDTLERIAGLEQEDLVEAHGTFYTSHCVSASCRHEYPLSWMKEKIFSEVTPKCEDCQSLVKPDIVFFGESLPARFFSCMQSDFLKVDLLLVMGTSLQVQPFASLISKAPLSTPRLLINKEKAGQSDPFLGMIMGLGGGMDFDSKKAYRDVAWLGECDQGCLALAELLGWKKELEDLVRREHASIDAQSGAGVPNPSTSASPKKSPPPAKDEARTTEREKPQ,little change in Rh

# From publication PMC10016340 (Chemical Science, 2023)
